Data set [1] concerns the target T1, human ELP3 with C-terminal Twin-Strep-Tag (human, UniProt Q9H9T3 1-547).
T1 construct: ELP3, human, codon-optimized open reading frame, UniProt Q9H9T3; with the tag 65 kDa as printed; Same material as the ELP3 chain of m4; carries an iron-sulfur cluster in all structures; also called ELP3 with Twin-Strep-Tag (TST); source: SuperSf9-3 insect cells, co-expressed with ELP1 and ELP2 (pBig1a), purified as ELP123 (StrepTrap, heparin, Superose 6); not shown: Twin-Strep-Tag, C-terminal, …
T1 sequence (looked up): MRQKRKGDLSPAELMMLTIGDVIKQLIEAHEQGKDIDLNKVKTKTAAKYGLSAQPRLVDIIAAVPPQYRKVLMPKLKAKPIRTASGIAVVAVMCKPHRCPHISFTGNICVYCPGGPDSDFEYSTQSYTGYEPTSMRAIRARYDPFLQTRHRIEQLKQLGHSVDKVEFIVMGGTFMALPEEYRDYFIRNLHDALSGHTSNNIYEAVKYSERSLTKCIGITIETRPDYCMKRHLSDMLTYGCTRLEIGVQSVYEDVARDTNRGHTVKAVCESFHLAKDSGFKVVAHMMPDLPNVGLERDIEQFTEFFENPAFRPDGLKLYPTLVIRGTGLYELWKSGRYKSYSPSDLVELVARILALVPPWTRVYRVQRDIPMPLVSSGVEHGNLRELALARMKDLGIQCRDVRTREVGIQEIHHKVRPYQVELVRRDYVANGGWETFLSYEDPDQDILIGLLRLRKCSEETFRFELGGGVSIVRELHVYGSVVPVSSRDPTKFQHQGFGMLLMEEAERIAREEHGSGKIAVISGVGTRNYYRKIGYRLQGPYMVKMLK
Description: co-purification with SDS-PAGE; ELP1, ELP2 and ELP3-Twin-Strep co-expressed in insect cells; StrepTrap, heparin and Superose 6 columns; SDS-PAGE of the purified subcomplex. Particulars: partners not purified.

Data set [2] deals with the molecule itself. The data set can be described thus: cryo-EM structure; co-expressed, co-purified ELP123 (0.6 g/l) without or with tRNA (3.3 µM), acetyl-CoA/DCA/ECA (0.5 mM) and SAM (1 mM); 20 mM HEPES pH 7.5, 100 mM NaCl, 2 mM MgCl2, 2 mM DTT; single-particle analysis.

One molecule from paper PMC11096365, “Cryo-EM structures of the human Elongator complex at work” (Nature Communications, 2024) can be followed below.

B1: human ELP1 (natural protein, UniProt O95163 1-1332, looked up)
chain: MRNLKLFRTLEFRDIQGPGNPQCFSLRTEQGTVLIGSEHGLIEVDPVSREVKNEVSLVAEGFLPEDGSGRIVGVQDLLDQESVCVATASGDVILCSLSTQQLECVGSVASGISVMSWSPDQELVLLATGQQTLIMMTKDFEPILEQQIHQDDFGESKFITVGWGRKETQFHGSEGRQAAFQMQMHESALPWDDHRPQVTWRGDGQFFAVSVVCPETGARKVRVWNREFALQSTSEPVAGLGPALAWKPSGSLIASTQDKPNQQDIVFFEKNGLLHGHFTLPFLKDEVKVNDLLWNADSSVLAVWLEDLQREESSIPKTCVQLWTVGNYHWYLKQSLSFSTCGKSKIVSLMWDPVTPYRLHVLCQGWHYLAYDWHWTTDRSVGDNSSDLSNVAVIDGNRVLVTVFRQTVVPPPMCTYQLLFPHPVNQVTFLAHPQKSNDLAVLDASNQISVYKCGDCPSADPTVKLGAVGGSGFKVCLRTPHLEKRYKIQFENNEDQDVNPLKLGLLTWIEEDVFLAVSHSEFSPRSVIHHLTAASSEMDEEHGQLNVSSSAAVDGVIISLCCNSKTKSVVLQLADGQIFKYLWESPSLAIKPWKNSGGFPVRFPYPCTQTELAMIGEEECVLGLTDRCRFFINDIEVASNITSFAVYDEFLLLTTHSHTCQCFCLRDASFKTLQAGLSSNHVSHGEVLRKVERGSRIVTVVPQDTKLVLQMPRGNLEVVHHRALVLAQIRKWLDKLMFKEAFECMRKLRINLNLIYDHNPKVFLGNVETFIKQIDSVNHINLFFTELKEEDVTKTMYPAPVTSSVYLSRDPDGNKIDLVCDAMRAVMESINPHKYCLSILTSHVKKTTPELEIVLQKVHELQGNAPSDPDAVSAEEALKYLLHLVDVNELYDHSLGTYDFDLVLMVAEKSQKDPKEYLPFLNTLKKMETNYQRFTIDKYLKRYEKAIGHLSKCGPEYFPECLNLIKDKNLYNEALKLYSPSSQQYQDISIAYGEHLMQEHMYEPAGLMFARCGAHEKALSAFLTCGNWKQALCVAAQLNFTKDQLVGLGRTLAGKLVEQRKHIDAAMVLEECAQDYEEAVLLLLEGAAWEEALRLVYKYNRLDIIETNVKPSILEAQKNYMAFLDSQTATFSRHKKRLLVVRELKEQAQQAGLDDEVPHGQESDLFSETSSVVSGSEMSGKYSHSNSRISARSSKNRRKAERKKHSLKEGSPLEDLALLEALSEVVQNTENLKDEVYHILKVLFLFEFDEQGRELQKAFEDTLQLMERSLPEIWTLTYQQNSATPVLGPNSTANSIMASYQQQKTSVPVLDAELFIPPKINRRTQWKLSLLD
notes: ELP1, human, codon-optimized open reading frame, UniProt O95163; predicted MW printed as 148 kDa; Same material as the ELP1 chain of m4; The ORF was first cloned into pFastBac1 HT A; source: SuperSf9-3 insect cells, co-expressed with ELP2 and ELP3 (pBig1a), purified as ELP123 (StrepTrap, heparin, Superose 6)
Usually stoichiometry N stands for a count of units in the complex or per binding partner. With B1, the “stoichiometry N” value in data set [1] worked out at 1. Further, the binding result in data set [2] was “binds”.
